Experiments:
[1] = Flag-PD-L1 IP with HA-Ub, Western blot; settings: glycan gained; control: control-transfected HepG2 (vector / siNC), MG132
Western blot of PD-L1 = settings: glycan lost; control: untreated HepG2 cells

| Substance | other: ubiquitination [1] | expression_or_secretion (Western blot of PD-L1) |
| --- | --- | --- |
| PD-L1: GALNT16 overexpression | decreases | – |
| PD-L1: tunicamycin (2 µg/mL, 18 h) | – | decreases |

Source: article PMC12658286
